According to patent publication US20250296960A1, “PEPTIDE COMPOSITIONS AND METHODS OF USE THEREOF” (priority 2022, published 2025):
Where two headings read alike, the source gives them in different places. Numbered stars: 1 amine (or outer) side, 2 acyl side, 3 side chain; on linkers, the order of the positions; unused ones are H or OH. Square brackets hold non-standard residues; d marks the D form. Primed or numbered codes have the meaning given here. Side chains are listed from the residue outwards. Ends that are not written are not given here. Peptide text beside a SMILES is read from it. * marks the point of attachment. C18 = C18 fatty acid (C16-C22 fatty acids conjugated via γGlu/8-amino-3,6-dioxaoctanoic acid spacers); C18″ = C18 fatty acid moiety (of 2OEG-γGlu-C18, K*); Biotin = O=C1N[C@H]2[C@H](CS[C@H]2CCCCC(=O)*)N1; C18 diacid = O=C(O)CCCCCCCCCCCCCCCCC(=O)*; γGlu = O=C(O)[C@H](CCC(=O)[*:2])N[*:1]; αMeR = C[C@](N)(CCCNC(=N)N)C(=O)O; AEEA = NCCOCCOCC(=O)O; Aib = CC(C)(N)C(=O)O

What was measured:
human GLP-1R = target: T1, human GLP-1R (Homo sapiens, UniProt P43220); test: cAMP assay (HitHunter cAMP) in GLP-1R-expressing CHO-K1 cells (GLP-1R+ cells); assay type: cell-based; conditions: Table 31
T1 construct: host or cells: CHO-K1
In short: (§1)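 Luminescent cAMP read-out: after 30 min peptide stimulation at 37 °C in cAMP assay buffer, receptor-expressing CHO-K1 cells (seeded 7×10^3/well the night before) received antibody and detection reagents for 1 h, then Solution A for 3 h, at room temperature in the dark.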

human GCGR = target: T2, human GCGR (Homo sapiens, UniProt P47871); test: cAMP assay (HitHunter cAMP) in GCGR-expressing CHO-K1 cells (GCGR+ cells); assay type: cell-based; conditions: Table 31
T2 construct: host or cells: CHO-K1
In short: as §1

human GIPR = target: T3, human GIPR (Homo sapiens, UniProt P48546); test: cAMP assay (HitHunter cAMP) in GIPR-expressing CHO-K1 cells (GIPR+ cells); assay type: cell-based; conditions: Table 31
T3 construct: host or cells: CHO-K1
T3 sequence (P48546 22-466): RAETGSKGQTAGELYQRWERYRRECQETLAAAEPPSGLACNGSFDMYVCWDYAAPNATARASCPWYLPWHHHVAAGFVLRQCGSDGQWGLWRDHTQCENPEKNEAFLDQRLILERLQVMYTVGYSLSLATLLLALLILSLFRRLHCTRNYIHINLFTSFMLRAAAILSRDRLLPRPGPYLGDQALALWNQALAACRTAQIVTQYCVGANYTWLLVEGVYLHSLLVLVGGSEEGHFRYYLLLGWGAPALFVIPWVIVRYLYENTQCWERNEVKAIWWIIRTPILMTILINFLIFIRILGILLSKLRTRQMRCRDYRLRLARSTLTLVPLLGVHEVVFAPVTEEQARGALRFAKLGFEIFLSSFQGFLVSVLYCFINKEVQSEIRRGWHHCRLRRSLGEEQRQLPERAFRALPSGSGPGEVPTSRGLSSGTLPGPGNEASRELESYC
In short: as §1

[1] = In vitro enzymatic stability against FaSSIF/P (pancreatin in FaSSIF, pH 6.5); assay type: in vitro ADME; conditions: simulated gi fluid, pH 6.5, Half-life (min)
Protocol: This study was conducted to determine the enzymatic stability of SEQ ID NOs. 77, 86, 87, 89, 90, and 91 after biotinylation in artificial intestinal environment. The test samples were prepared by mixing stock solutions of peptide and pancreatin dissolved in FaSSIF solution (pH 6.5) in a weight ratio of 25:1. The test samples were incubated at 37° C. for 120 min. The sampling from test samples was proceeded at the predetermined time points (10, 30, 60, and 120 min) and stopped by 10% TFA solution.
Analytical HPLC was performed to determine the remaining amount on an ACQUITY Premier system (Waters, USA) with an ACQUITY CSH C18 column (Waters, USA) at 35° C. using 0.1% TFA in water and acetonitrile. The remaining amount was determined as a percentage of the peak area at the sampling time point relative to the peak area of the initial sample.
For the stability against FaSSIF/P, the test samples were prepared by mixing stock solutions of peptide and pancreatin dissolved in FaSSIF solution (pH 6.5) in a weight ratio of 19:1. The test samples were incubated at 37° C. for 120 min. The sampling from test samples was proceeded at the predetermined time points (10, 30, 60, and 120 min) and stopped by 10% TFA solution.

[2] = target: T4, human GLP-1 receptor (GLP-1R), expressed on CHO-K1 cells (human, UniProt P43220 24-463); test: cell-based or functional assay
[3] = target: T5, human glucagon receptor (GCGR), expressed on CHO-K1 cells (human, UniProt P47871 26-477); test: cell-based or functional assay
[4] = target: T6, human glucose-dependent insulinotropic polypeptide receptor (GIPR), expressed on CHO-K1 cells (human, UniProt P48546 22-466); test: cell-based or functional assay
T6 sequence (looked up): T3 sequence (P48546 22-466)

[5] = target: T4, human GLP-1 receptor (GLP-1R), …; test: cell-based or functional assay; remark: listed apart in the source
[6] = target: T5, human glucagon receptor (GCGR), …; test: cell-based or functional assay; remark: listed apart in the source
[7] = target: T6, human glucose-dependent insulinotropic …; test: cell-based or functional assay; remark: listed apart in the source
[8] = target: T4, human GLP-1 receptor (GLP-1R), …; test: cell-based or functional assay; remark: listed apart in the source
[9] = target: T5, human glucagon receptor (GCGR), …; test: cell-based or functional assay; remark: listed apart in the source
[10] = target: T6, human glucose-dependent insulinotropic …; test: cell-based or functional assay; remark: listed apart in the source
[11] = target: T4, human GLP-1 receptor (GLP-1R), …; test: cell-based or functional assay; remark: listed apart in the source
[12] = target: T5, human glucagon receptor (GCGR), …; test: cell-based or functional assay; remark: listed apart in the source
[13] = target: T6, human glucose-dependent insulinotropic …; test: cell-based or functional assay; remark: listed apart in the source

T5 sequence (P47871 26-477): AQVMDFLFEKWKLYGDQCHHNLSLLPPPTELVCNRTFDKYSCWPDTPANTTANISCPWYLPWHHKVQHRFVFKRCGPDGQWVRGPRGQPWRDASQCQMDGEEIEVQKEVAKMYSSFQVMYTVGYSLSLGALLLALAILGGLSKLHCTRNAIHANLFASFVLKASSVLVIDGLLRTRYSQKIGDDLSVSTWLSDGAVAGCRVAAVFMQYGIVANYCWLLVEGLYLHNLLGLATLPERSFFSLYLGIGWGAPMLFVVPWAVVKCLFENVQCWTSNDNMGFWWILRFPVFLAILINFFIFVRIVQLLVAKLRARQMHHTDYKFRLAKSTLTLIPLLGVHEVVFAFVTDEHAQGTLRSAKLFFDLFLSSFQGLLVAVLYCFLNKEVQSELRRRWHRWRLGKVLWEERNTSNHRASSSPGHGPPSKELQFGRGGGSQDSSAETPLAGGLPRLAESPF
T1 sequence (P43220 24-463): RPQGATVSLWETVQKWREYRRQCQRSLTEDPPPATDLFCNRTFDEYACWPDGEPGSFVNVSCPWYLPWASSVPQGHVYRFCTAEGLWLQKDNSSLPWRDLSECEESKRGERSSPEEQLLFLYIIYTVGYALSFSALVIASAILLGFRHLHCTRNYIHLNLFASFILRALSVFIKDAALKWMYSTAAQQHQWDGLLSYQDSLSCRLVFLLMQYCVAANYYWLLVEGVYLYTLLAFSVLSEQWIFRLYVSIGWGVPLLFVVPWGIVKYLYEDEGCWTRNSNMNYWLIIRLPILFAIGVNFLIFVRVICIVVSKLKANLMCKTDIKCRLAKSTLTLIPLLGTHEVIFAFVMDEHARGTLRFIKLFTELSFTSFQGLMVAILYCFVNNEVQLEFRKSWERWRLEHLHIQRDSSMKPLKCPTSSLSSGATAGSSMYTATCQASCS
T2 sequence (P47871 26-477): as the sequence (P47871 26-477) above

CSCC[C@H](NC(=O)[C@H](CCCCNC(=O)CCCC[C@@H]1SC[C@@H]2NC(=O)N[C@@H]21)NC(=O)[C@H](Cc1ccc(O)cc1)NC(=O)[C@H](CC(=O)O)NC(=O)[C@H](CC(C)C)NC(=O)[C@H](CC(C)C)NC(=O)[C@H](CCCCNC(=O)COCCOCCNC(=O)COCCOCCNC(=O)CC[C@H](NC(=O)CCCCCCCCCCCCCCCCC(=O)O)C(=O)O)NC(=O)[C@H](CO)NC(=O)[C@H](Cc1ccc(O)cc1)NC(=O)[C@H](CC(=O)O)NC(=O)[C@H](CO)NC(=O)[C@@H](NC(=O)[C@H](Cc1ccccc1)NC(=O)[C@@H](NC(=O)CNC(=O)[C@H](CCC(N)=O)NC(=O)C(C)(C)NC(=O)[C@@H](N)Cc1ccc(O)cc1)[C@@H](C)O)[C@@H](C)O)C(=O)N[C@@H](CCC(N)=O)C(=O)NC(C)(C)C(=O)N[C@@H](CC(=O)O)C(=O)N[C@@H](Cc1ccccc1)C(=O)N[C@H](C(=O)N[C@@H](CCC(N)=O)C(=O)N[C@@H](Cc1c[nH]c2ccccc12)C(=O)N[C@@H](CC(C)C)C(=O)N[C@@H](CC(C)C)C(=O)N[C@@H](CCC(=O)O)C(=O)NCC(=O)NCC(=O)N1CCC[C@H]1C(=O)N[C@@H](CO)C(=O)N[C@@H](CO)C(=O)NCC(=O)N[C@@H](C)C(=O)N1CCC[C@H]1C(=O)N1CCC[C@H]1C(=O)N1CCC[C@H]1C(=O)N[C@@H](CO)C(N)=O)C(C)C [compound 91] (H-Y[Aib]QGTFTSDYSK([AEEA-AEEA-γGlu-C18 diacid])LLDYK(Biotin)MQ[Aib]DFVQWLLEGGPSSGAPPPS-NH2; N-terminus and C-terminus assumed)
Ratio vs. GLP-1R, GLP-1R (human GLP-1R): 100 | Relative % to native ligand, GLP-1R (human GLP-1R): 19% | Ratio vs. GLP-1R, GCGR (human GCGR): 135 | Relative % to native ligand, GCGR (human GCGR): 26% | Ratio vs. GLP-1R, GIPR (human GIPR): 970 | Relative % to native ligand, GIPR (human GIPR): 184% | half-life [1]: 33.3 min

B1: Peptide No. 5-3D (peptide)
peptide: Y[Aib]QGTFTSDYSK([AEEA-AEEA-γGlu-C18″])LLDYMMQRDFVQWLLEGGPSSGAPPPS-NH2
Relative % to native ligand [2]: 119% | Relative % to native ligand [3]: 11% | Relative % to native ligand [4]: 1050% | Ratio vs. GLP-1R [5]: 100 | Ratio vs. GLP-1R [6]: 9 | Ratio vs. GLP-1R [7]: 880 | Relative % to non-lipidated peptide [8]: 19% | Relative % to non-lipidated peptide [9]: 1% | Relative % to non-lipidated peptide [10]: 15% | Ratio vs. GLP-1R [11]: 100 | Relative % to native ligand [11]: 219% | Ratio vs. GLP-1R [12]: 26 | Relative % to native ligand [12]: 56% | Ratio vs. GLP-1R [13]: 105 | Relative % to native ligand [13]: 230%

B2: Peptide No. 5-5D (peptide)
peptide: H[Aib]QGTFTSDYSK([AEEA-AEEA-γGlu-C18″])LLDYMMQRDFVQWLLEGGPSSGAPPPS-NH2
Relative % to native ligand [2]: 305% | Relative % to native ligand [3]: 2% | Relative % to native ligand [4]: 212% | Ratio vs. GLP-1R [5]: 100 | Ratio vs. GLP-1R [6]: 1 | Ratio vs. GLP-1R [7]: 70 | Relative % to non-lipidated peptide [8]: 18% | Relative % to non-lipidated peptide [9]: 1% | Relative % to non-lipidated peptide [10]: 40%

B3: SEQ ID NO. 99 (peptide)
peptide: Y[Aib]QGTFTSDYSK([AEEA-AEEA-γGlu-C18])LLDYMMQHDFVQWLLEGGPSSGAPPPS-NH2
Ratio vs. GLP-1R [11]: 100 | Relative % to native ligand [11]: 35% | Ratio vs. GLP-1R [12]: 80 | Relative % to native ligand [12]: 28% | Ratio vs. GLP-1R [13]: 3240 | Relative % to native ligand [13]: 1130%

B4: Peptide No. 5-3 (peptide)
peptide: Y[Aib]QGTFTSDYSKLLDYMMQRDFVQWLLEGGPSSGAPPPSC-NH2
Relative % to native ligand [2]: 638% | Relative % to native ligand [3]: 969% | Relative % to native ligand [4]: 7120% | Ratio vs. GLP-1R [5]: 100 | Ratio vs. GLP-1R [6]: 152 | Ratio vs. GLP-1R [7]: 1120 | Relative % to non-lipidated peptide [8]: 100% | Relative % to non-lipidated peptide [9]: 100% | Relative % to non-lipidated peptide [10]: 100%

B5: SEQ ID NO. 101 (peptide)
peptide: Y[Aib]QGTFTSDYSK([AEEA-AEEA-γGlu-C18″])LLDYMMQ[αMeR]DFVQWLLEGGPSSGAPPPS-NH2
Ratio vs. GLP-1R [11]: 100 | Relative % to native ligand [11]: 722% | Ratio vs. GLP-1R [12]: 12 | Relative % to native ligand [12]: 89% | Ratio vs. GLP-1R [13]: 65 | Relative % to native ligand [13]: 472%

B6: Peptide No. 5-5 (peptide)
peptide: H[Aib]QGTFTSDYSKLLDYMMQRDFVQWLLEGGPSSGAPPPSC-NH2
Relative % to native ligand [2]: 1690% | Relative % to native ligand [3]: 260% | Relative % to native ligand [4]: 526% | Ratio vs. GLP-1R [5]: 100 | Ratio vs. GLP-1R [6]: 15 | Ratio vs. GLP-1R [7]: 31 | Relative % to non-lipidated peptide [8]: 100% | Relative % to non-lipidated peptide [9]: 100% | Relative % to non-lipidated peptide [10]: 100%

B7: SEQ ID NO. 100 (peptide)
peptide: Y[Aib]QGTFTSDYSK([AEEA-AEEA-γGlu-C18″])LLDYMMQQDFVQWLLEGGPSSGAPPPS-NH2
Ratio vs. GLP-1R [11]: 100 | Relative % to native ligand [11]: 54% | Ratio vs. GLP-1R [12]: 56 | Relative % to native ligand [12]: 30% | Ratio vs. GLP-1R [13]: 103 | Relative % to native ligand [13]: 55%
